How the values were obtained:
tnip1_human TNIP1 = tnip1_human TNIP1 (UniProt Q15025)
zn639_human ZNF639 = zn639_human ZNF639 (UniProt Q9UID6)
kank2_human KANK2 = kank2_human KANK2 (UniProt Q63ZY3)
car10_human CARD10 = car10_human CARD10 (UniProt Q9BWT7)
zbt14_human ZBTB14 = zbt14_human ZBTB14 (UniProt O43829)
pick1_human PICK1 = pick1_human PICK1 (UniProt Q9NRD5)
thap1_human THAP1 = thap1_human THAP1 (UniProt Q9NVV9)
coha1_human COL17A1 = coha1_human COL17A1 (UniProt Q9UMD9)
cntrb_human CNTROB = cntrb_human CNTROB (UniProt Q8N137)
xrcc4_human XRCC4 = xrcc4_human XRCC4 (UniProt Q13426)
xrcc4_human XRCC4, sequence (Q13426 whole entry): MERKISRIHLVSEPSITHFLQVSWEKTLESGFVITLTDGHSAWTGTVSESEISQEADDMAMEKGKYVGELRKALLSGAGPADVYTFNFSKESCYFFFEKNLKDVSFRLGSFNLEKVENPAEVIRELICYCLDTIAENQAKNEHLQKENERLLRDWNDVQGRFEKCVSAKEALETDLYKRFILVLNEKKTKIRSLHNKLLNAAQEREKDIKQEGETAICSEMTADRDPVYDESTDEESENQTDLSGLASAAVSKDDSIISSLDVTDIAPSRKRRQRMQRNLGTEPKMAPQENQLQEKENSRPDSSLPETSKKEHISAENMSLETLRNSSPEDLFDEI

pnma5_human PNMA5 = pnma5_human PNMA5 (UniProt Q96PV4)
sp4_human SP4 = sp4_human SP4 (UniProt Q02446)
ppip1_human PSTPIP1 = ppip1_human PSTPIP1 (UniProt O43586)
msd4_human MSANTD4 = msd4_human MSANTD4 (UniProt Q8NCY6)
crcm_human MCC = crcm_human MCC (UniProt P23508)
trbp2_human TARBP2 = trbp2_human TARBP2 (UniProt Q15633)
tri37_human TRIM37 = tri37_human TRIM37 (UniProt O94972)
tbcd1_human TBC1D1 = tbcd1_human TBC1D1 (UniProt Q86TI0)
tbcd1_human TBC1D1, sequence (Q86TI0 whole entry): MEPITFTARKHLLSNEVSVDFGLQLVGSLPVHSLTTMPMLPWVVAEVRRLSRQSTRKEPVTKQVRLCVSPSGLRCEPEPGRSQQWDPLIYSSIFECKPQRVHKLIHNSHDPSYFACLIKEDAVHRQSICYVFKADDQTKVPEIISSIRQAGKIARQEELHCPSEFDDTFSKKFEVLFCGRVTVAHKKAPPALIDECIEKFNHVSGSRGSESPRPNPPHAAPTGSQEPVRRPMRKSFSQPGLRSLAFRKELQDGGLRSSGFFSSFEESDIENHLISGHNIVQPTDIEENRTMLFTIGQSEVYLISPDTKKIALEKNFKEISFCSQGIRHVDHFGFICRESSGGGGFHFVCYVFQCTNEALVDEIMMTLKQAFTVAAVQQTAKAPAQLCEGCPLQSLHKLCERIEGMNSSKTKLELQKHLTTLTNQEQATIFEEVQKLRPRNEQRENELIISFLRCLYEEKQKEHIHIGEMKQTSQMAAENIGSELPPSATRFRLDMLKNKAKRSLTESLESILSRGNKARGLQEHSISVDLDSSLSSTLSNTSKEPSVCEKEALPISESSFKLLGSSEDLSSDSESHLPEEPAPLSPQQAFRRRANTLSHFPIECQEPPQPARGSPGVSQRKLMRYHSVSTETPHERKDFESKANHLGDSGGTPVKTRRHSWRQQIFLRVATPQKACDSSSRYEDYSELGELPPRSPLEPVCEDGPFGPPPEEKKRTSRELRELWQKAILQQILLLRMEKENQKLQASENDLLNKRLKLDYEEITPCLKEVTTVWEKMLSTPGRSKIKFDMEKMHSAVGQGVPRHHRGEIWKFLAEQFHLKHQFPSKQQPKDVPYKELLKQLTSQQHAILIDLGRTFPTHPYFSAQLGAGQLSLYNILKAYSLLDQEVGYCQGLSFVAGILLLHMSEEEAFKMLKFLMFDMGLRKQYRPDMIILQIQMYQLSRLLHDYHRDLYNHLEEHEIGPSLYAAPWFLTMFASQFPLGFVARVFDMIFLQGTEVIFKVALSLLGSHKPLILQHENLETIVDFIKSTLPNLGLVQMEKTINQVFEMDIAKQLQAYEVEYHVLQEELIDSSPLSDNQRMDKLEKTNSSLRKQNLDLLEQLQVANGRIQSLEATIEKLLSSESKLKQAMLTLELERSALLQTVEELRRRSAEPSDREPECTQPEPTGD

klh12_human KLHL12 = klh12_human KLHL12 (UniProt Q53G59)
syph_human SYP = syph_human SYP (UniProt P08247)
fads6_human FADS6 = fads6_human FADS6 (UniProt Q8N9I5)
rprm_human RPRM = rprm_human RPRM (UniProt Q9NS64)
mgst2_human MGST2 = mgst2_human MGST2 (UniProt Q99735)
snx2_human SNX2 = snx2_human SNX2 (UniProt O60749)
snx2_human SNX2, sequence (O60749 whole entry): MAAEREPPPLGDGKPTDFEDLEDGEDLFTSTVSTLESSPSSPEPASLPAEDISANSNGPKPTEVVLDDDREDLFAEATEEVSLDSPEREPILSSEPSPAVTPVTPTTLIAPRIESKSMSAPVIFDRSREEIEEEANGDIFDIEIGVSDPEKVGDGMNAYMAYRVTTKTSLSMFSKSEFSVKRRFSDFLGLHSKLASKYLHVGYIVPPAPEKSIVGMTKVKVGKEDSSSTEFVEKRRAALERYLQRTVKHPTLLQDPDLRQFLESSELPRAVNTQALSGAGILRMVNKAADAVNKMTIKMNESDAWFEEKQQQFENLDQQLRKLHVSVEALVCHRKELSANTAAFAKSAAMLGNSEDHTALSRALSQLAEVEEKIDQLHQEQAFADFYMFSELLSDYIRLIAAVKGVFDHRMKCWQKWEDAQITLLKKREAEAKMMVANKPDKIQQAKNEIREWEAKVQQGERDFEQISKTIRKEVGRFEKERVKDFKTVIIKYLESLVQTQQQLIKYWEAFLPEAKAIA

sft2a_human SFT2D1 = sft2a_human SFT2D1 (UniProt Q8WV19)
sng3_human SYNGR3 = sng3_human SYNGR3 (UniProt O43761)
CCDC43 = CCDC43 (UniProt Q86WV7)
flowr_human CACFD1 = flowr_human CACFD1 (UniProt Q9UGQ2)
flowr_human CACFD1, sequence (Q9UGQ2 whole entry): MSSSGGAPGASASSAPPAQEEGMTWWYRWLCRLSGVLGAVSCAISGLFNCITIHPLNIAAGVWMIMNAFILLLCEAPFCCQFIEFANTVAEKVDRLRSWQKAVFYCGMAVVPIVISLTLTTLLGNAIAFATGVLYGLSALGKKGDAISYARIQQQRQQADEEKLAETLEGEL

TMEM239, Q8WW34-2, sequence (Q8WW34 44-195): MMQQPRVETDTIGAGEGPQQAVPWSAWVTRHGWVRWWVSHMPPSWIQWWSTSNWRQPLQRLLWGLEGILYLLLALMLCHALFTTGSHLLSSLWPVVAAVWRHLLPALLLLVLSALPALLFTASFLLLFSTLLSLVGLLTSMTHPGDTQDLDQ
kank2_human KANK2, sequence (Q63ZY3 whole entry): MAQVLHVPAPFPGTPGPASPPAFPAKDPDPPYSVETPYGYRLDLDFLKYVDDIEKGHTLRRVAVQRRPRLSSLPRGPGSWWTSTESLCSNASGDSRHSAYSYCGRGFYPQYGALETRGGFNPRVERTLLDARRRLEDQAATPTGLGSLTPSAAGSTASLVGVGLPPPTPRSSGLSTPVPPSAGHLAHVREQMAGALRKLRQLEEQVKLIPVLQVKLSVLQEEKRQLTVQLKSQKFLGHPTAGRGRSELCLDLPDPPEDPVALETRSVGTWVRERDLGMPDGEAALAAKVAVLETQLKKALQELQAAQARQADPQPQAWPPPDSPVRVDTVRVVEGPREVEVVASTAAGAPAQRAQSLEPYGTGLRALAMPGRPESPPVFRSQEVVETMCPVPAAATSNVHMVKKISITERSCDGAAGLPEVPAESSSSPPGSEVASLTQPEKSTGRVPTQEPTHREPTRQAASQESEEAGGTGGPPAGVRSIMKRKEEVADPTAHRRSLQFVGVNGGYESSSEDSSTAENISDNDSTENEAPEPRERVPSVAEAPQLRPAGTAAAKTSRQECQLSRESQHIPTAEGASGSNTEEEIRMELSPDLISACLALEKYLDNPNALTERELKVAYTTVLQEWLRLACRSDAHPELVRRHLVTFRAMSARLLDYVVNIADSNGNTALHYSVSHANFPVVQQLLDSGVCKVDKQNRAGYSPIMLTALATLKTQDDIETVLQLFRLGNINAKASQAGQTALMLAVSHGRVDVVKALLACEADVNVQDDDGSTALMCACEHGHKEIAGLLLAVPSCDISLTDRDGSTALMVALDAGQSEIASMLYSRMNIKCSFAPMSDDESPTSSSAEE
SYNGR1, O43759-2, sequence (O43759 other isoform, or with tags, fused parts or gaps): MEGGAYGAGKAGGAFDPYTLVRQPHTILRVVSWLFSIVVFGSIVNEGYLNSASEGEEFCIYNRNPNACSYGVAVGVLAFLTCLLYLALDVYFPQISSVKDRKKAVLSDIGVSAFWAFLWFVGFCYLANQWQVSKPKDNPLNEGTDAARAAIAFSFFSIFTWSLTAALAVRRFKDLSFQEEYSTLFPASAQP
CAMK2B, Q13554-3, sequence (Q13554 other isoform, or with tags, fused parts or gaps): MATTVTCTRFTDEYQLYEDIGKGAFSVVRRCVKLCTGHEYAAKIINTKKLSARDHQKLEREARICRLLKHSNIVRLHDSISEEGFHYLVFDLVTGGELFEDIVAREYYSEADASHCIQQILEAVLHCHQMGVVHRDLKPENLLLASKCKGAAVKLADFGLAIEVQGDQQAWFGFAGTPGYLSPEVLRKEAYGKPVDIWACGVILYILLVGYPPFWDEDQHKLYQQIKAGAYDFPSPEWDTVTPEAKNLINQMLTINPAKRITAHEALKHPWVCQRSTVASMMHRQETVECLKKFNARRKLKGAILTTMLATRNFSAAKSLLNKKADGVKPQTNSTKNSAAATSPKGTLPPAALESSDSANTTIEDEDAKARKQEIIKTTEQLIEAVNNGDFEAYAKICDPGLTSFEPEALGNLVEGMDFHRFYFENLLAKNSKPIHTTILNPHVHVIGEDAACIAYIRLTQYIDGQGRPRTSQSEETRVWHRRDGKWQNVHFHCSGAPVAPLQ

Row | Substance | effect of a mutation on the interaction (tnip1_human TNIP1) | effect of a mutation on the interaction (zn639_human ZNF639) | effect of a mutation on the interaction (kank2_human KANK2) | effect of a mutation on the interaction (car10_human CARD10) | effect of a mutation on the interaction (zbt14_human ZBTB14) | effect of a mutation on the interaction (pick1_human PICK1) | effect of a mutation on the interaction (thap1_human THAP1) | effect of a mutation on the interaction (coha1_human COL17A1) | effect of a mutation on the interaction (cntrb_human CNTROB) | effect of a mutation on the interaction (xrcc4_human XRCC4) | effect of a mutation on the interaction (CCDC14, Q49A88-3) | effect of a mutation on the interaction (pnma5_human PNMA5) | effect of a mutation on the interaction (sp4_human SP4) | effect of a mutation on the interaction (ppip1_human PSTPIP1) | effect of a mutation on the interaction (msd4_human MSANTD4) | effect of a mutation on the interaction (crcm_human MCC) | effect of a mutation on the interaction (trbp2_human TARBP2) | effect of a mutation on the interaction (tri37_human TRIM37) | effect of a mutation on the interaction (CAMK2B, Q13554-3) | effect of a mutation on the interaction (tbcd1_human TBC1D1) | also measured
1 | Bifunctional polynucleotide phosphatase/kinase (Homo sapiens), Q96T60 E326K | with no effect | with no effect | disrupting interaction strength | disrupting interaction strength | with no effect | disrupting interaction strength | disrupting interaction strength | disrupting interaction strength | with no effect | with no effect | disrupting interaction strength | disrupting interaction strength | with no effect | with no effect | disrupting interaction strength | disrupting interaction strength | disrupting interaction strength | with no effect | disrupting interaction strength | with no effect | effect of a mutation on the interaction (klh12_human KLHL12): disrupting interaction strength; effect of a mutation on the interaction (TMEM239, Q8WW34-2): disrupting interaction strength; effect of a mutation on the interaction (IKZF1, Q13422-7): with no effect; effect of a mutation on the interaction (syph_human SYP): with no effect; effect of a mutation on the interaction (fads6_human FADS6): with no effect; effect of a mutation on the interaction (rprm_human RPRM): disrupting interaction strength; effect of a mutation on the interaction (mgst2_human MGST2): with no effect; effect of a mutation on the interaction (snx2_human SNX2): with no effect; effect of a mutation on the interaction (sft2a_human SFT2D1): disrupting interaction strength; effect of a mutation on the interaction (sng3_human SYNGR3): with no effect; effect of a mutation on the interaction (SYNGR1, O43759-2): disrupting interaction strength; effect of a mutation on the interaction (CCDC43): disrupting interaction strength; effect of a mutation on the interaction (flowr_human CACFD1): disrupting interaction strength
2 | Bifunctional polynucleotide phosphatase/kinase (Homo sapiens), Q96T60 P20S | with no effect | with no effect | with no effect | with no effect | with no effect | with no effect | with no effect | with no effect | with no effect | with no effect | with no effect | with no effect | with no effect | with no effect | with no effect | with no effect | with no effect | with no effect | with no effect | with no effect | effect of a mutation on the interaction (klh12_human KLHL12): with no effect; effect of a mutation on the interaction (TMEM239, Q8WW34-2): with no effect; effect of a mutation on the interaction (IKZF1, Q13422-7): with no effect; effect of a mutation on the interaction (syph_human SYP): with no effect; effect of a mutation on the interaction (fads6_human FADS6): with no effect; effect of a mutation on the interaction (rprm_human RPRM): with no effect; effect of a mutation on the interaction (mgst2_human MGST2): with no effect; effect of a mutation on the interaction (snx2_human SNX2): with no effect; effect of a mutation on the interaction (sft2a_human SFT2D1): with no effect; effect of a mutation on the interaction (sng3_human SYNGR3): with no effect; effect of a mutation on the interaction (SYNGR1, O43759-2): with no effect; effect of a mutation on the interaction (CCDC43): with no effect; effect of a mutation on the interaction (flowr_human CACFD1): with no effect

Reference: IntAct's records for PubMed 32296183
